Biological target: HLA-B*35:01_… (HLA-PEPTIDE target G5), soluble (human, enzymatically biotinylated (BirA))
Assay: scFv PPE ELISA

Row | Binder | fold selective binding, target pHLA vs minipool of negative control pHLAs [fold]
1 | scFv G5-P4E04 (scFv, V domains shown, scFv) VH: QVQLVQSGAEVKKPGASVKVSCKASGGTFSSYGISWVRQAPGQGLEWMGWINPNSGVTKYAQKFQGRVTMTRDTSTSTVYMELSSLRSEDTAVYYCARGDYYFDYWGQGTLVTVSS VL: DIQMTQSPSSLSASVGDRVTITCRASQSISRFLNWYQQKPGKAPKLLIYGASRPQSGVPSRFSGSGSGTDFTLTISSLQPEDFATYYCQQSYSTPLTFGQGTKVEIK | ≥ 3
2 | scFv G5-P1-E05 (scFv, V domains shown, scFv) VH: QVQLVQSGAEVKKPGASVKVSCKASGYTFTSYNMHWVRQAPGQGLEWMGWINPNSGGTNYAQKFQGRVTMTRDTSTSTVYMELSSLRSEDTAVYYCARDVMDVWGQGTTVTVSS VL: DIQMTQSPSSLSASVGDRVTITCRASQGISNYLNWYQQKPGKAPKLLIYYASSLQSGVPSRFSGSGSGTDFTLTISSLQPEDFATYYCQQTYMMPYTFGQGTKVEIK | ≥ 3
3 | scFv G5-P1B12 (scFv, V domains shown, scFv) VH: EVQLLESGGGLVQPGGSLRLSCAASGFTFSNSDMNWVRQAPGKGLEWVASISSSGGYINYADSVKGRFTISRDNSKNTLYLQMNSLRAEDTAVYYCAKVNWNDGPYFDYWGQGTLVTVSS VL: DIQMTQSPSSLSASVGDRVTITCRASQSISSWLAWYQQKPGKAPKLLIYAASSLQSGVPSRFSGSGSGTDFTLTISSLQPEDFATYYCQQANSFPLTFGGGTKVEIK | ≥ 3
4 | scFv G5-P1C12 (scFv, V domains shown, scFv) VH: QVQLVQSGAEVKKPGSSVKVSCKASGGTFSNFGVSWLRQAPGQGLEWMGGIIPILGTANYAQKFQGRVTITADESTSTAYMELSSLRSEDTAVYYCATPTNSGYYGPYYYYGMDVWGQGTTVTVSS VL: DIQMTQSPSSLSASVGDRVTITCRASQSISSWLAWYQQKPGKAPKLLIYAASTLQSGVPSRFSGSGSGTDFTLTISSLQPEDFATYYCQQSYSIPLTFGGGTKVEIK | ≥ 3
5 | scFv G5R4-P3G05 (scFv, V domains shown, scFv) VH: QVQLVQSGAEVKKPGASVKVSCKASGYTFTNYYMHWVRQAPGQGLEWMGIINPSGGSTSYAQKFQGRVTMTRDTSTSTVYMELSSLRSEDTAVYYCARSWFGGFNYHYYGMDVWGQGTTVTVSS VL: DIQMTQSPSSLSASVGDRVTITCQASEDISNHLNWYQQKPGKAPKLLIYDALSLQSGVPSRFSGSGSGTDFTLTISSLQPEDFATYYCQQANSFPFTFGPGTKVDIK | ≥ 3
6 | scFv G5R4-P2H8 (scFv, V domains shown, scFv) VH: EVQLLESGGGLVQPGGSLRLSCAASGFTFTSYSMHWVRQAPGKGLEWVSSITSFTNTMYYADSVKGRFTISRDNSKNTLYLQMNSLRAEDTAVYYCAKDLGSYGGYYWGQGTLVTVSS VL: not shown | ≥ 3
7 | scFv G5R4-P4A07 (scFv, V domains shown, scFv) VH: QVQLVQSGAEVKKPGASVKVSCKASGYTFTSYYMHWVRQAPGQGLEWMGWMNPNSGNTGYAQKFQGRVTMTRDTSTSTVYMELSSLRSEDTAVYYCARELPIGYGMDVWGQGTTVTVSS VL: not shown | ≥ 3
8 | scFv G5R4-P1H11 (scFv, V domains shown, scFv) VH: EVQLLESGGGLVKPGGSLRLSCAASGFTFSDYYMSWVRQAPGKGLEWVSYISSSSSYTNYADSVKGRFTISRDDSKNTLYLQMNSLKTEDTAVYYCARDVVANFDYWGQGTLVTVSS VL: EIVMTQSPATLSVSPGERATLSCRASQSVSSNLAWYQQKPGQAPRLLIYAASARASGIPARFSGSGSGTEFTLTISSLQSEDFAVYYCQQYGSWPRTFGQGTKVEIK | ≥ 3
9 | scFv G5R4-P1D06 (scFv, V domains shown, scFv) VH: QVQLVQSGAEVKKPGASVKVSCKASGYTFTSYDINWVRQAPGQGLEWMGWINPNSGDTKYSQKFQGRVTMTRDTSTSTVYMELSSLRSEDTAVYYCARDGTRYYGMDVWGQGTTVTVSS VL: not shown | ≥ 3
10 | scFv G5R4-P4B01 (scFv, V domains shown, scFv) VH: QVQLVQSGAEVKKPGSSVKVSCKASGGTFSSYAISWVRQAPGQGLEWMGGIIPIVGTANYAQKFQGRVTITADESTSTAYMELSSLRSEDTAVYYCARGGSYYYYGMDVWGQGTTVTVSS VL: not shown | ≥ 3
11 | scFv G5R4-P2B10 (scFv, V domains shown, scFv) VH: QVQLVQSGAEVKKPGASVKVSCKASGGTFSSYAISWVRQAPGQGLEWMGWMNPDSGSTGYAQRFQGRVTMTRDTSTSTVYMELSSLRSEDTAVYYCARGHSSGWYYYYGMDVWGQGTTVTVSS VL: not shown | ≥ 3

Biological target: HLA-A*02:01_… (HLA-PEPTIDE target G8), soluble (human, enzymatically biotinylated (BirA) for screening and BLI)
Assay: scFv PPE ELISA

Row | Binder | fold selective binding, target pHLA vs minipool of negative control pHLAs [fold]
12 | scFv R3G8-P2C10 (scFv, V domains shown, scFv) VH: QVQLVQSGAEVKKPGASVKVSCKASGYTFTSYYMHWVRQAPGQGLEWMGWINPYSGGTNYAQKFQGRVTMTRDTSTSTVYMELSSLRSEDTAVYYCAKGGIYYGSGSYPSWGQGTLVTVSS VL: DIQMTQSPSSLSASVGDRVTITCRASQDVSTWLAWYQQKPGKAPKLLIYAASSLQSGVPSRFSGSGSGTDFTLTISSLQPEDFATYYCQQSHSTPQTFGQGTKVEIK | ≥ 3
13 | scFv R3G8-P5C03 (scFv, V domains shown, scFv) VH: QVQLVQSGAEVKKPGASVKVSCKASGYTFTSYYMHWVRQAPGQGLEWMGWMNPNSGNTGYAQKFQGRVTMTRDTSTSTVYMELSSLRSEDTAVYYCARGLLGFGEFLTYGMDVWGQGTLVTVSS VL: DIQMTQSPSSLSASVGDRVTITCRASQGISNWLAWYQQKPGKAPKLLIYAASTLQSGVPSRFSGSGSGTDFTLTISSLQPEDFATYYCQQTYSTPWTFGQGTKLEIK | ≥ 3
14 | scFv R3G8-P4F05 (scFv, V domains shown, scFv) VH: QVQLVQSGAEVKKPGASVKVSCKASGYTFSNMYLHWVRQAPGQGLEWMGWINPNTGDTNYAQTFQGRVTMTRDTSTSTVYMELSSLRSEDTAVYYCARGLYGDYFLYYGMDVWGQGTKVTVSS VL: DIQMTQSPSSLSASVGDRVTITCRASQGISNYLAWYQQKPGKAPKLLIYAASTLQSGVPSRFSGSGSGTDFTLTISSLQPEDFATYYCQQSYSTPLTFGGGTKVEIK | ≥ 3
15 | scFv R3G8-P2E04 (scFv, V domains shown, scFv) VH: QVQLVQSGAEVKKPGSSVKVSCKASGGTFSSYGVSWVRQAPGQGLEWMGWISPYSGNTDYAQKFQGRVTITADESTSTAYMELSSLRSEDTAVYYCARGLYYMDVWGKGTTVTVSS VL: DIQMTQSPSSLSASVGDRVTITCRASQSISSWLAWYQQKPGKAPKLLIYDASNLETGVPSRFSGSGSGTDFTLTISSLQPEDFATYYCQQSYSTPLTFGGGTKLEIK | ≥ 3
16 | scFv R3G8-P5F02 (scFv, V domains shown, scFv) VH: QVQLVQSGAEVKKPGASVKVSCKASGYTFTGYYIHWVRQAPGQGLEWMGVINPSGGSTTYAQKLQGRVTMTRDTSTSTVYMELSSLRSEDTAVYYCARDRDSSWTYYYYGMDVWGQGTTVTVSS VL: EIVMTQSPATLSVSPGERATLSCRASQSVGNSLAWYQQKPGQAPRLLIYGASTRATGIPARFSGSGSGTEFTLTISSLQSEDFAVYYCQQYGSSPYTFGQGTKVEIK | ≥ 3
17 | scFv G8-P2B05 (scFv, V domains shown, scFv) VH: EVQLLESGGGLVQPGGSLRLSCAASGFDFSIYSMNWVRQAPGKGLEWVSAISGSGGSTYYADSVKGRFTISRDNSKNTLYLQMNSLRAEDTAVYYCASNGNYYGSGSYYNYWGQGTLVTVSS VL: DIQMTQSPSSLSASVGDRVTITCRASQSISRWLAWYQQKPGKAPKLLIYAASSLQSGVPSRFSGSGSGTDFTLTISSLQPEDFATYYCQQYSTYPITIGQGTKVEIK | ≥ 3
18 | scFv G8-P2C11 (scFv, V domains shown, scFv) VH: QVQLVQSGAEVKKPGASVKVSCKASGYTFTSYAMNWVRQAPGQGLEWMGWINPNSGGTNYAQKFQGRVTMTRDTSTSTVYMELSSLRSEDTAVYYCAKDPFWSGHYYYYGMDVWGQGTTVTVSS VL: not shown | ≥ 3
19 | scFv G8-P1H08 (scFv, V domains shown, scFv) VH: QVQLVQSGAEVKKPGASVKVSCKASGYTFGNYFMHWVRQAPGQGLEWMGMVNPSGGSETFAQKFQGRVTMTRDTSTSTVYMELSSLRSEDTAVYYCAASTWIQPFDYWGQGTLVTVSS VL: DIQMTQSPSSLSASVGDRVTITCRASQGINSYLAWYQQKPGKAPKLLIYDASNLETGVPSRFSGSGSGTDFTLTISSLQPEDFATYYCQQHNSYPPTFGQGTKLEIK | ≥ 3
20 | scFv G8-P1C01 (scFv, V domains shown, scFv) VH: QVQLVQSGAEVKKPGASVKVSCKASGGTFSSHAISWVRQAPGQGLEWMGVIIPSGGTSYTQKFQGRVTMTRDTSTSTVYMELSSLRSEDTAVYYCARGDYYDSSGYYFPVYFDYWGQGTLVTVSS VL: DIQMTQSPSSLSASVGDRVTITCRASQNIYTYLNWYQQKPGKAPKLLIYDASNLETGVPSRFSGSGSGTDFTLTISSLQPEDFATYYCQQANGFPLTFGGGTKVEIK | ≥ 3
21 | scFv G8-P2E06 (scFv, V domains shown, scFv) VH: QVQLVQSGAEVKKPGASVKVSCKASGYTLTTYYMHWVRQAPGQGLEWMGWINPNSGGTNYAQKFQGRVTMTRDTSTSTVYMELSSLRSEDTAVYYCARAVYYDFWSGPFDYWGQGTLVTVSS VL: DIQMTQSPSSLSASVGDRVTITCRASQGISNSLAWYQQKPGKAPKLLIYAASSLQSGVPSRFSGSGSGTDFTLTISSLQPEDFATYYCQQANSFPWTFGQGTKLEIK | ≥ 3
22 | scFv R3G8-P5G08 (scFv, V domains shown, scFv) VH: QVQLVQSGAEVKKPGASVKVSCKASGYTFTSNYMHWVRQAPGQGLEWMGWMNPNSGNTGYAQKFQGRVTMTRDTSTSTVYMELSSLRSEDTAVYYCARGLYGDYFLYYGMDVWGQGTTVTVSS VL: not shown | ≥ 3

From patent US20210061914A1 (published 2021)
